Source: PMC5897525 (2018)

Columns and labels:
[1] = biological target: recombinant Fel d 1 produced with a myc-myc-hexahistidine tag (rFel d 1.mmh) (cat, UniProt P30440-1 18-109; P30438 23-92); assay: SPR; 25°C
[2] = biological target: rFel d 1.mFc; assay: SPR; 25°C; dimeric

recombinant Fel d 1 produced with a myc-myc-hexahistidine tag (rFel d 1.mmh), sequence (P30440 other isoform, or with tags, fused parts or gaps): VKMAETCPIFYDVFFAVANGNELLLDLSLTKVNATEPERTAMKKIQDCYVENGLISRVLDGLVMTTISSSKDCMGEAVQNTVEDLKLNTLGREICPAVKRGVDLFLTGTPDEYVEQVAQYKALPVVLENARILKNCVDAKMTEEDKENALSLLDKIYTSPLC

B1: REGN1909 (antibody, V domains shown)
VH: EVQLVESGGGLVQPGGSLRLSCAASGFTFSSYAMSWVRQAPGKGLEWVSAISGRGYNADYADSVKGRFTISRDNSKNTLYLQMNSLRAEDTAVYYCAKLEYFDYWGQGTLVTVSS
VL: DIQMTQSPSTLSASVGDRVTITCRASQSISSWLAWYQQKPGKAPKLLIYKASSLESGVPSRFSGSGSGTDFTLTISSLRPEDFATYYCQQYNSYPLTFGGGTKVEIK
[1]
  Kd: 0.912 nM
[2]
  Kd: 0.0978 nM
